The supplement of paper PMC9170038

What follows are sequences tested on MS2 coat protein (assay: apparent KD of MS2 coat protein; higher = weaker reporter binding). Settings: Eterna round: R107; input ligand: arginine 13.2 mM.
Procedure, shortened: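 For every design, apparent KD is the median of normalised binding-curve fits from its clusters. The RNA switches were transcribed on-chip from Illumina sequencing clusters and titrated with SNAP-549-labelled MS2 coat protein (twofold steps, 0.7 or 1.5 nM to 3 µM; 0.8–1.5 h to 10–20 min per step). Titrations used 100 mM Tris-HCl pH 7.5, 80 mM KCl, 4 mM MgCl2, without or with constant ligand.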

| Sequence | apparent KD of MS2 coat protein |
| --- | --- |
| UUAGAUAUGACAGAUACCAGCGUGUUAUAAAACAUGAGGAUCACCCAUGUAGUGAUCGAGCGCCCUUGGCAGCUGGUGUGUUUGG [7.R] | 69.7 nM |
| UUGGGUUUGUGAAGGAGCGGGUAUGUUUUAUAGUGGAUCCUAACAUGAGGAUCACCCAUGUCCCAGGUAGGUCGCGCGGGUUUGG [12.T] | 54.4 nM |
| GGAUUAGAGGCGGCCGCCACUGGAACAUGAGGAUCACCCAUGUAGUGCAUGUAAUUAACCUCGAUCAGGACCGGGCCGAUAGUCA [Exclusion - Tryptophan B / A] | 51.9 nM |
| UGGUCCGGCGGAAGGAGCGACAUGAGGAUCACCCAUGUCUCCCGUUAUGGGAGUUCUUUAGGUCAGGUAGGUCGCCGGCGGGUCA [#1 Exclusion - Arginine B Attempt #11 (Inspired by Omei)] | 196 nM |
| ACUACAAAGUAGUAUAUACGAAAGUAUAGACGAGGACCGGUACGGCCGCCACUCGGUACCGGAAACACAUGAGGAUCACCCAUGU [Ex_TrypA - 3H] | 17 nM |
| UCGCGAUAGAGAAGGAGCGUCAACACCACUUAACAUGAGGAUCACCCAUGUGUUACUUUAAGACAGGUAGGUCGCUCUAGCGCUU [JR_Nu_ExcArginiB_Sub027] | 12.7 nM |
| CGUAUUGGAAACAGUACGAGUGAUCCGGUCCGAGGACCGGUACGGCCGCCACUCGAAAUAAAUAAACAUGAGGAUCACCCAUGUA [Ex Tryptophan A 9] | 14.1 nM |
| GGGUGGUAGGCGGCCGCCACUGAUUUUCAUUCAUAGAUGACAUGAGGAUCACCCAUGUUUAUGUGCAGGACCGGGCCUGCUGUGG [aaaU] | 43.4 nM |
| GGUUACUCUACGGCCGCCACUGUCAUGUAAAGAUACCUGUACAUGACAUGAGGAUCACCCAUGUGCAGGACCGGGUAGUGUAACC [Tryptophan B 18] | 91.3 nM |
| GGAGGGACCAGAAGGAGCGACAUGAGGAUCACCCAUGUCUCCCGUUAUGGGAGUUCUUUAGGUCAGGUAGGUCGCUGGUCCCUCC [#1 Exclusion - Arginine B Attempt #6 (Inspired by Omei)] | 55.7 nM |
| UGUAUGUGAUCUGAUACCAGCUAAUAAAGCUUGAGGAUCACCCAAGUGGAGCGGAAACGCAGCCCUUGGCAGCAGAUCGCAUACU [Denovo 8 #StaticStem #AlternativeMS2] | 189 nM |
| UGUUUUGUGAUGGAUACCAGCAGAGAAAACGUUUAUCCUAACAUGAGGAUCACCCAUGUAUGCCCUUGGCAGCUGUUGUGGGAUA [8.R] | 27.2 nM |
| AAUUUAUGGUUCUUGAUGUAGUAUCUAUUUCGAGGACCGGUACGGCCGCCACUCGUAAAUUACAUGAGGAUCACCCAUGUUAGCU [JR_ExcTryptoA_Sub011] | 18.8 nM |
| AUUCUUUACUGAAGGAGCGUCAUUCUUACAUGAGGAUCACCCAUGUUUAUUCUUUAUUAUUGACAGGUAGGUCGCAGAUUUUUUA [JR_SSArginiB_Sub018] | 15.5 nM |
| AACACAUGAGGAUCACCCAUGUUCUCGUGUCGAGGACCGGUACGGCCGCCACUCGGUUCUCGCGAGGAUGGUCAAAGACUAUCCA [Omei Trp A SS B v7] | 40.3 nM |
| AUAAAUAAUAAAUAAAAUAAAAUGGGUGAACGAGGACCGGUACGGCCGCCACUCGGACAUGAGGAUCACCCAUGUCCAUGUGAAA [#21 Exclusion Tryptophan A] | 15.6 nM |
| UACAUGAGGAUCACCCAUGUGGCGGAUGAUACCAGUAUGGUGACAUACCCUUGGCAGCAUGCUAUGAGGAUCACCCAUGUGUGCA [EThA NP+V+V2 #11 DOUBLE] | 56.3 nM |
| CUAUAUAGAAAACUAUAUAGAGUGGGUGAACGAGGACCGGUACGGCCGCCACUCGGACAUGAGGAUCACCCAUGUCCAUGUGAAA [AstrosExyTryA#25] | 13.1 nM |
| AAAGGUCGCAAUAAAUCUCCUACAUGUGAAGGAGCGCCCGAAAGGGCAGGUAGGUCGCACAUGAGGAUCACCCAUGUGAGCGACC [MAT - Exclusion Arginine A - Mod of Eli - D2] | 10.3 nM |

| Sequence | apparent KD of MS2 coat protein |
| --- | --- |
| ACAUGAGCAUCAGCCAUGUGUAUGACAUGACGAGGACCGGUACGGCCGCCACUCGACAUGAGGAUCACCCAUGUUGAGGAUCACA [Exclusion - Tryptophan A #1] | 7.95 nM |
| ACAUGAGGAUCACCCAUGUAAUGGCACGAUACCAGCUGAUCCCGUGGCCCUUGGCAGCGUCCGGUGUGGUCCGCCGGGUUGGACG [XXXMULLIN] | 24.4 nM |
| UUAAUUAUAUAUUAUAUAAUAUAUACAGAAGGAGCGUGAUAAAACACAGGUAGGUCGCUGAAGGGAACAUGAGGAUCACCCAUGU [AstrosSSArgA#1] | 26.9 nM |
| CACAUGAGGAUCACCCAUGUCUGAACUGAAGGAGCGCUAAACAAGGCAGGUAGGUCGCGGAAUCGUGUGUGCAUAUGCACACGCG [9.V] | 13.6 nM |
| CGAUAUAUAGCGGCCGCCACUUACUCAUGAGGUAACAACAUGAGGAUCACCCAUGUUUGAGGAUCAAGGACCGGGCUAUGUAUCG [AstrosSSTryB#14] | 24.9 nM |
| UUUUACGGCGAUCUGGGUUUACCAGAUCGGCGAGGACCGGUACGGCCGCCACUCGUGUUUCUUUAACAUGAGGAUCACCCAUGUA [SSTA #1] | 32.4 nM |
| UGUAUGUGAUCUGAUACCAGCGUUGAUAACCUGAGGAUCACCCUGGUAAGGCGAAAGCCGCGCCCUUGGCAGCAGAUCGCAUACU | 169 nM |
| CCUGCUACGGGAAACCGUAGCAGGAAUGAUACCAGUAGGAAAGACUACCCUUGGCAGCAUGGGUAACAUGAGGAUCACCCAUGUU [SSThA NP+V+V2 #6 Same Structure] | 70.9 nM |
| AUACAUGAGGAUCACCCAUGUCCUCGUGAUCGAGGACCGGUACGGCCGCCACUCGGUCCUCGCGAGGUGGAGUCAAAGACUCCAA [Omei Trp A SS A v5] | 109 nM |
| GUGACUUAAAGGCGCCAUUUGUGAUAGGAAGGAGCGGCGAAAUAGCCAGGUAGGUCGCCUAUACAUGAGGAUCACCCAUGUCACC [XARG-A 26] | 48.7 nM |
| AGAUGUAGCGGAAGGAGCGACAUGAGGAUCACCCAUGUCUCCCGUUGUGGGAGUUCCUUAGGUCAGGUAGGUCGCCGUUACGUCA [Omei Arg B SS B v2] | 121 nM |
| ACUCUGUCGGGUGAUACCAGCCUCGGCACAUCUCGCGCCGAACAUGAGGAUCACCCAUGUGGCCCUUGGCAGCACAUGACAAAUC [Rimalearve] | 64.1 nM |
| CCGUCACAUGAGGAUCACCCAUGUGGUGAUACCAGCAGUCGACCCUGCCCUUGGCAGCACAUUAUCAUAAAAGCAAUCAGCAACG [theeternabot_sameState_MS2_Theo_A_41] | 57 nM |
| UGACAUUGCUGCGAUACCAGACAUGAGGAUCACCCAUGUACCAAGGUAAAGAAAUAACGUGUCCCUUGGCAGCGCAGCAAUGUCU [MAT - Exclusion Theophlline B - Mod of Eli - D8] | 11.5 nM |
| ACAUGAGGAUCACCCAUGUUUGAUGUUCCUCGAGGACCGGUACGGCCGCCACUCGAACGAGUGGCGCGCGAGUGCGCACUCGCGC [aSa] | 11.3 nM |
| GGUUGGUGUAUAUAUAUAUUGAUUACUGAAGGAGCGGGAAAUAACCCAGGUAGGUCGCAGAGAUCCACAUGAGGAUCACCCAUGU [!0.J] | 31 nM |
| CAUACUUUAGUAUGUUAUGUGGACAGUGAUACCAGAUACGAAAGUAUCCCUUGGCAGCACAACAUGAGGAUCACCCAUGUAAUUU [Theophylline A 5] | 24.4 nM |
| GCUAGUGGCAGAAGGAGCGACAUUUUAAGUGGUCGAUACAUGAGGAUCACCCAUGUACUAUGUCAGGUAGGUCGCUGCCACUAGC [EAB NP+V+V2 #3 +-Same Structure] | 39.1 nM |
| GACUCUGUCGGAAGGAGCGCAGAGCCGGUCUUCUACAUGAGGAUCACCCAUGUGCUGGUUAUGCAGGUAGGUCGCCGACGCGUGG [Ismatiza] | 17 nM |
